This is an account of results in patent publication US20250289896A1 (ANALYTICAL BIOSCIENCES SHANGHAI, published 2025).

One may read the EC50 as the midpoint of the concentration-response curve.

The target of assay [1] is T1, mCCR8 (UniProt P56484 1-353, limits assumed).
T1 construct: whole, on cells; also called 293T-mCCR8
T1 sequence (looked up): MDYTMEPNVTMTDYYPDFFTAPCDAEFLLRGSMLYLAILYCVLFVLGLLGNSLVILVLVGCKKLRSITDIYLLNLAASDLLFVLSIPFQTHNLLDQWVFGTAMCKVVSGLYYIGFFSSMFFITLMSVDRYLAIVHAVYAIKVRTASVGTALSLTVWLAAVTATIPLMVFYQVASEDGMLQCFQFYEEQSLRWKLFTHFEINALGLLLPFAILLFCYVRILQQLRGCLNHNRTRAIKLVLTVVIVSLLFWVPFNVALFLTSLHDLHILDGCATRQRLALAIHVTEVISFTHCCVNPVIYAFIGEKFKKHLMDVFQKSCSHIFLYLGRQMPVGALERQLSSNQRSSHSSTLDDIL
As to the kind of experiment: flow cytometry, 293T cells with mCCR8. The procedure:
(§1) Binding specificity of the anti-CCR8 antibodies (mAbs) was tested by FACS using several cell lines. […] The binding titration of the anti-CCR8 antibodies to CCR8 transfectants was performed by serial dilution of antibodies. The diluted antibody (50 μl) in flow cytometry buffer (PBS, 0.5% BSA, 1 mM EDTA) was incubated with cells (50 μl) at a concentration of 2 million cells/ml on ice for 30 min. After two washes with flow cytometry buffer, bound antibody was detected with Alexa647-labeled F(ab′)2 fragment goat anti-human IgG (Jackson ImmunoResearch #709-606-149) (1:500 dilution) for 20 minutes on ice. The fluorescence was measured on a Cytek Aurora cytometer, after two washes with flow cytometry buffer. The data were analyzed with GraphPad Prism 8.0 software to determine EC50 values.
For orientation: Flow cytometry measures light scatter and fluorescence of single cells or particles in a stream.

In assay [2] the target is T2, Human CCR8 (C-C chemokine receptor type 8) (human, UniProt P51685 1-355).
T2 construct: overexpressed on HEK293T (293T-hCCR8), Jurkat-hCCR8 and CHEM1-CCR8 cells; also called hCCR8
T2 sequence (P51685 whole entry): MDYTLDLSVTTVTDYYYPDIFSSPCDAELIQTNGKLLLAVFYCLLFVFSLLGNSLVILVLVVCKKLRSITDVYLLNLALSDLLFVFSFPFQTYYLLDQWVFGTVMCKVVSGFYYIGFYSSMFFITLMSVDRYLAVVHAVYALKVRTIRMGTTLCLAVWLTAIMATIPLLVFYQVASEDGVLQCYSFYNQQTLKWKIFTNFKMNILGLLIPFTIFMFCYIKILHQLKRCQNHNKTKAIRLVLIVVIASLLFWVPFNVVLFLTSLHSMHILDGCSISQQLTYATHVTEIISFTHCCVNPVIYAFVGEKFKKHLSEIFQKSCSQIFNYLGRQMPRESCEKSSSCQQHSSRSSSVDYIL
As to the kind of experiment: flow cytometry, Hut78 cells (endogenous human CCR8). The method, then:
as §1

The target in assay [3] is T2, Human CCR8 (C-C chemokine receptor type …). Description: flow cytometry, 293T cells overexpressing human CCR8. The method, then: as §1
For assay [4], the target named is T3, cynomolgus macaque CCR8 (cynomolgus macaque, UniProt G7NYJ2 1-355).
T3 construct: whole, on cells; Overexpressed on 293T cells (293T-cCCR8) and Jurkat cells (Jurkat-cynoCCR8); also called cCCR8; cyno CCR8
T3 sequence (G7NYJ2 entry or part of it): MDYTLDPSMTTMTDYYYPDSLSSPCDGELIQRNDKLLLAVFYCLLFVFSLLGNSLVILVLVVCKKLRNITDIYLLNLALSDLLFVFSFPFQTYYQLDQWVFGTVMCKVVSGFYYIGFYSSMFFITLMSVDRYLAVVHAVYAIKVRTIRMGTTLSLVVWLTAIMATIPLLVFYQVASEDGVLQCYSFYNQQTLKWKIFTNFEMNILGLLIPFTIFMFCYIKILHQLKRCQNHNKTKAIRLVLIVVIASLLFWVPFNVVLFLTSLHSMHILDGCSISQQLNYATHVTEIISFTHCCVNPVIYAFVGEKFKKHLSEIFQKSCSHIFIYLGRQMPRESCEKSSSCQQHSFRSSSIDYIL
Description: flow cytometry, 293T cells overexpressing cynomolgus CCR8. The method, then:
as §1

In assay [5] the target is T2, Human CCR8 (C-C chemokine receptor type …). As to the kind of experiment: flow cytometry, human PBMC-derived activated Tregs. The method, then: (§2) 2.3 Cell-based binding assays for human PBMC-derived activated Tregs Binding specificity of the anti-CCR8 antibodies was tested by FACS using human PBMC-derived activated Tregs. In summary, Tregs were expanded and activated following the manufacturer's protocol (130-095-345, Miltenyi). Briefly, cryopreserved 7-day expanded human PBMC-derived Tregs (SailyBio) were thawed and rested overnight. They were then restimulated with CD3/CD28 MACSiBeads in the presence of rhIL-2 for 24 hours. […] Afterwards, the activated Tregs were plated at 20K/well in 96-well plates, spun down and the supernatant was removed. Cell pellets were then resuspended and incubated with 100 μl of various concentrations of mAbs or a human lgG1 isotype control antibody (biolegend #403501) at 37° C. for 30 min. The final concentrations of antibodies were indicated on x-axis in each figure. The cells were washed three times with FACS buffer (PBS containing 0.5 mg/ml BSA and 1 mM EDTA). PE-labeled goat-anti-human IgG (Invitrogen) diluted in FACS buffer was added to cell pellets as secondary antibodies at a concentration of 3 μg/ml, and the samples were incubated at 4° C. for 30 min. Samples were washed three times with FACS buffer and analyzed using a Cytek Aurora cytometer. Data were analyzed with GraphPad Prism 8.0 software to determine EC50 values.

For assay [6] the target is unchanged. As to the kind of experiment: flow cytometry, human PBMC-derived activated Tregs. The procedure: as §2
Especially, FIG. 6 and Table 6 show the titration of anti-CCR8 mAbs ABC138-H2.hu13.IgG1.SDIE, ABC025-H2G.SDIE and ABC080.chH2.SDIE to human PBMC-derived activated Treg cells. ABC138-H2.hu13.IgG1.SDIE was developed by mutagenesis in the light chain CDRs of ABC025.H2G.SDIE, which is the humanized clone of ABC080.chH2.SDIE.
This is another data set of the same source.

For assay [7], the target named is T3, cynomolgus macaque CCR8. As to the kind of experiment: cell-based or functional assay.
Assay [8] has as its target T2, Human CCR8 (C-C chemokine receptor type …). As to the kind of experiment: cell-based or functional assay.
For assay [9] the target is unchanged. Description: cell-based or functional assay. The source holds these as a separate data set.

B1: ABC820 (antibody, human IgG1, kappa, V domains shown)
VH: EVQLVESGGGLVQPGRSLKLSCAASGFTFSDYYMAWVRQAPKKGLEWVASISYEGRSTYYGDSVKGRFTISRDDEKSILYLQMSGPRSEDTATYYCARQDLYYGRNPSWFLDFWGPGTMVTVSS
VL: IVMTQSPTSMSISVGGRVTMNCKASQNVGSNVDWFQQKTGQSPKLLIYKTTSRYTGVPDRFTGSGSKTDFTFTISNMQAEDLAVYYCLQSNSFPYTFGAGTKLELKR
For the molecule B1, the binding result in assay [1] is “no binding”. In addition, the EC50 came out at 19.4 nM in [2], 0.103 nM in [3] and 0.09 nM in [4].

B2: ABC084.AF (antibody, human IgG1, kappa, V domains shown)
VH: EVQLLESGGGLVQPGGSLRLSCAASGFTFSSYGMHWVRQAPGKGLEWVSAINWNGGSTGYADSVKGRFTISRDNSKNTLYLQMNSLRAEDTAVYYCARGHHSGYDGRFFDYWGQGTLVTVSS
VL: QSVLTQPPSVSGAPGQRVTISCTGSSSNIGAGYNVHWYQQLPGTAPKLLIYTNNRRPSGVPDRFSGSKSGTSASLAISGLRSEDEADYYCAAWDASLSGWVFGGGTKLTVLR
notes: Prior art antibody (PCT/EP2021/067504)
As to B2, a half-maximal response in assay [5] (EC50) required 33.8 nM.

B3: ABC080.chH2.SDIE (antibody)
heavy: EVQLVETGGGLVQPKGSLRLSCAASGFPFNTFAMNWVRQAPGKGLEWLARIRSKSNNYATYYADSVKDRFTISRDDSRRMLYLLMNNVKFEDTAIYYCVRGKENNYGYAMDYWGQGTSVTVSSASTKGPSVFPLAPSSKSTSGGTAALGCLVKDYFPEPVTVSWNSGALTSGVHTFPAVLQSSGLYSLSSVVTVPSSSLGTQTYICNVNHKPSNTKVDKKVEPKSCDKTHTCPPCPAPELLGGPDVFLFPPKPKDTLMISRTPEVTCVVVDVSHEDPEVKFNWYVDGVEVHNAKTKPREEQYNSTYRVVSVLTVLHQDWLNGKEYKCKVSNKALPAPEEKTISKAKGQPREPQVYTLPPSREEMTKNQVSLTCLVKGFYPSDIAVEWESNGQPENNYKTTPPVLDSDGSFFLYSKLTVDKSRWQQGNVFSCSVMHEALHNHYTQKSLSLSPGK
light: DIVMTQAAPSVPVTPGESVSISCRSSQSLLHSNGNTYLYWFLQRPGQSPQLLIYRMSNLASGVPDRFSGSGSGTAFTLRISRVEAEDVGVYYCMQHLEYPFTFGIGTKLELKRTVAAPSVFIFPPSDEQLKSGTASVVCLLNNFYPREAKVQWKVDNALQSGNSQESVTEQDSKDSTYSLSSTLTLSKADYEKHKVYACEVTHQGLSSPVTKSFNRGEC
notes: Chimeric antibody with SDIE Fc; ABC025.H2G.SDIE is its humanized clone
As to B3, the EC50 in [6] is 0.38 nM; in [3] it was 0.135 nM.

B4: ABC048-B1.hu11.IgG1.SDIE (antibody, V domains shown)
VH: EVQLVESGGGLVQPGGSLKLSCAASGFTFNTYAMNWVRQASGKGLEWVARIRSKSNNYATYYADSVKDRFTISRDDSKNTLYLQMNSLKTEDTAVYYCVREVRRDYALDQWGQGTMVTVSS
VL: DIVMTQSPLSLPVTPGEPASISCRSSKSLLHSNGNTYLYWFLQKPGQSPQLLIYRMSNLASGVPDRFSGSGSGTDFTLKISRVEAEDVGVYYCMQHVEYPFTFGGGTKLEIKR
notes: IgG1 with SDIE mutations, by its name; also called ABC048-B1.hull.IgG1.SDIE
B4: a half-maximal effect in assay [5] (EC50) was put at 0.521 nM.

B5: ABC025-H2G.SDIE (antibody, human IgG1, kappa)
heavy: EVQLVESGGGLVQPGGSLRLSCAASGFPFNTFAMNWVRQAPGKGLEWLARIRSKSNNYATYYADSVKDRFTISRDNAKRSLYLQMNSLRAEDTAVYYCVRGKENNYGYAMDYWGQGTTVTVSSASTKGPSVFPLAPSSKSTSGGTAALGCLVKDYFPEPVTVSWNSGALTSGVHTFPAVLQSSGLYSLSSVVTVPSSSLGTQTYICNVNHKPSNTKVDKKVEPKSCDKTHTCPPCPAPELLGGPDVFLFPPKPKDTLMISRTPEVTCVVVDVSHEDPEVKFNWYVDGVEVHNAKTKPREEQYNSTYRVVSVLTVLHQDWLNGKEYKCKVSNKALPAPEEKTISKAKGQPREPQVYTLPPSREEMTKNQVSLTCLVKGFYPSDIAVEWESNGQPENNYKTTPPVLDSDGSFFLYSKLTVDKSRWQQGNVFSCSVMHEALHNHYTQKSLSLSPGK
light: DIVMTQSPLSLPVTPGEPASISCRSSQSLLHSNANTYLYWFLQKPGQSPQLLIYRMSNLASGVPDRFSGSGSGTDFTLKISRVEAEDVGVYYCMQHLEYPFTFGQGTKLEIKRTVAAPSVFIFPPSDEQLKSGTASVVCLLNNFYPREAKVQWKVDNALQSGNSQESVTEQDSKDSTYSLSSTLTLSKADYEKHKVYACEVTHQGLSSPVTKSFNRGEC
notes: Humanized clone of ABC080.chH2.SDIE; Fc with SDIE mutation
With B5, the results for the EC50 in [5] and in [6] were 1.78 nM and 0.38 nM, respectively.

B6: ABC138-H2.hu13.IgG1.SDIE (antibody, V domains shown)
VH: EVQLVESGGGLVQPGGSLRLSCAASGFPFNTFAMNWVRQAPGKGLEWLARIRSKSNNYATYYADSVKDRFTISRDNAKRSLYLQMNSLRAEDTAVYYCVRGKENNYGYAMDYWGQGTTVTVSS
VL: DIVMTQSPLSLPVTPGEPASISCRSSKSLLHSNANTYLYWFLQKPGQSPQLLIYRMSNLASGVPDRFSGSGSGTDFTLKISRVEAEDVGVYYCMQHVEYPFTFGGGTKLEIKR
notes: Developed by mutagenesis in the light chain CDRs of ABC025.H2G.SDIE; IgG1 with SDIE mutations; also called ABC0138.H2.Hu13.SDIE
For B6, in assay [7], the “ADCC killing of Jurkat-cynoCCR8 cells, IC50 (pM)” value came out at 62.9 pM. Also, the “ADCC killing of Jurkat-hCCR8 cells, IC50 (pM)” value in assay [8] was determined as 2.09 pM. Also, the “ADCC killing of Hut78 cells, IC50 (pM)” value in assay [9] stood at 0.652 pM. For the same molecule, the binding result in [1] and in assay [4] was “no binding” in each case. The EC50 turned out to be 0.579 nM in assay [5], 0.105 nM in assay [6], 0.102 nM in assay [2] and 0.0237 nM in assay [3].

B7: ABC814 (antibody, human IgG1, kappa, V domains shown)
VH: EVQLVESGGGLVQPGRSLKLSCVASGFTFSDYYMAWVRQAPKKGLEWVASISYEGRSTYYGDSVKGRFTISRDDAKSTLYLQMNSLRSEDTATYYCARQDLYYGHKSYWYLDFWGPGTMVTVSS
VL: DIVMTQSPTSMSISVGDRVTMNCKASQNVGSNVDWYQQKPGQSPKLLIYKTSSRSTGVPDRFTGSGSRTDFTFTITNMQAEDLAVYYCMQSNSYPFTFGAGTKLELKR
Regarding B7, in [1], the binding result is “no binding”. The 50% effective concentration (EC50) in assay [2] came out at 11.6 nM; in assay [3] it was 0.0828 nM; in assay [4] it was 0.101 nM.

B8: ABC078.AF (antibody, human IgG1, kappa, V domains shown)
VH: QVQLVQSGAEVKKPGASVKVSCKASGYTFTDSEMHWVRQATGQGLEWMGAIQPETGGTAYNQKFKARVTMTRDTSISTAYMELSSLRSEDTAVYYCARRRRNFDYWGQGTLVTVSS
VL: DIVMTQTPLSLSVTPGQPASISCRSSQSLFHSSGNTYLHWYLQKPGQPPQLLIYKVSNRFSGVPDRFSGSGSGTDFTLKISRVEAEDVGVYYCSQSTHVPFTFGQGTKLEIKR
notes: Prior art antibody (PCT/US2021/023430); also called BMS-986340
Turning to B8, the “ADCC killing of Jurkat-cynoCCR8 cells, IC50 (pM)” value in [7] turned out to be 346 pM. The “ADCC killing of Jurkat-hCCR8 cells, IC50 (pM)” value in assay [8] was found to be 2.79 pM. Besides, in assay [9], the “ADCC killing of Hut78 cells, IC50 (pM)” value turned out to be 0.637 pM. In assay [5], this molecule displayed an EC50 of 0.729 nM.

B9: ABC078 (antibody, V domains shown)
VH: QVQLVQSGAEVKKPGASVKVSCKASGYTFTDSEMHWVRQATGQGLEWMGAIQPETGGTAYNQKFKARVTMTRDTSISTAYMELSSLRSEDTAVYYCARRRRNFDYWGQGTLVTVSS
VL: DIVMTQTPLSLSVTPGQPASISCRSSQSLFHSSGNTYLHWYLQKPGQPPQLLIYKVSNRFSGVPDRFSGSGSGTDFTLKISRVEAEDVGVYYCSQSTHVPFTFGQGTKLEIKR
Regarding B9, the binding result in [1] and in assay [4] was “no binding” throughout. Besides, the EC50 stood at 0.648 nM in assay [2] and 0.0282 nM in [3].

B10: ABC519 (antibody, human IgG1, kappa, V domains shown)
VH: EVHLVESGGGFVRPGRSMKLSCAASGFPFSFYGMAWVLQTPTKGLEWVASISYDGSDTYYRDSVKGRFAISRDNAKNTLYLQMESLRSEDTATFYCAKTSGYGSFDYWGQGTLVTVSS
VL: DIVMTQSPVSLPVSFGGQASISCRSSRSLVHRNGDTYLHWYLQKPGQSPQLLIYRVSNRFAGVPDRFSGSGSGTDFTLKISRVESEDLGLYYCLQGTHLPPTFGSGTKLEIKR
With B10, the binding result in [1] and in assay [2] was “no binding” throughout. In addition, a half-maximal response in assay [4] (EC50) required 0.25 nM.

B11: ABC523 (antibody, human IgG1, kappa, V domains shown)
VH: EVKLVESGGGLVQPGNSLTLSCVASGFTFSNYGMHWIRQAPKKGLEWIAMIYSDSSKMFYTDTVKGRFTISRDNSKNTLYLEMNSLRSEDTAMYYCAARDYGYKGAHYYVMDAWGQGASVTVSS
VL: DIQMTQSPSFLSASVGDRVTIICKSSQNINRYLNWYQQKLGEAPKLLIYNANNLQTGIPSRFSGGGSGTDFTFTIGSLRPEDVATYFCLQHKSWPYTFGPGTKLELKR
With B11, the binding result in assay [1] and in assay [2] was “no binding” throughout. In addition, the EC50 in assay [4] was 0.26 nM.
